Measured values published in patent publication US20050084491A1 (Janssen / Centocor, published 2005).

Tests used:
CNTO95 [1] = assay: flow cytometry: CNTO95 (10 ug/ml) staining of A375.S2 cells after preincubation with peptide at 100 ug/ml
CNTO95 [2] = assay: isothermal titration calorimetry, peptide titrated into 3 µM CNTO95, 25° C. (commented: No binding)
CNTO95 [3] = assay: flow cytometry: CNTO95 (10 ug/ml) staining of A375.S2 cells after preincubation with peptide at 200 ug/ml
CNTO95 [4] = assay: competitive ELISA: peptide preincubated with CNTO95, CNTO95 binding to αVβ3-coated plate detected
CNTO95 [5] = assay: isothermal titration calorimetry, peptide titrated into 3 µM CNTO95, 25° C.

B1: CEN2322 (peptide)
peptide: DYRTAADTTGLQ
notes: synthetic peptide with the D564-Q575 segment of the mature alphaV chain; also called alphaV segment; native peptide
CNTO95 [1]
  Mean Channel Fluorescence: 90.5
CNTO95 [2]
  ΔH: -0.325 kcal/mol
CNTO95 [3]
  Mean Channel Fluorescence: 92.4

B2: CEN2319 (peptide)
peptide: DFRSWWDLSGYR
notes: synthetic linear peptide, phage-display consensus (mimotope); also called 12p1; 12pG1
CNTO95 [1]
  Mean Channel Fluorescence: 12.3
CNTO95 [4]
  EC50: 5.8 µM
CNTO95 [5]
  Kd: 4.2 µM
  Molar ratio (Peptide/CNTO95): 2.2
  ΔH: -12 kcal/mol
CNTO95 [3]
  Mean Channel Fluorescence: 11.6

B3: CEN2553 (peptide)
peptide: DFRSWWDLEE
notes: synthetic peptide made from the consensus formula; C-terminal glutamates added for solubility
CNTO95 [1]
  Mean Channel Fluorescence: 12.9
CNTO95 [3]
  Mean Channel Fluorescence: 9.41
